Measurements from doi:10.1101/2022.04.18.488656, “HNRNPH1 destabilizes the G-quadruplex structures formed by G-rich RNA sequences that regulate the alternative splicing of an oncogenic fusion transcript”.

T1: HNRNPH1 full-length (UniProt P31943 1-449)
T1 sequence: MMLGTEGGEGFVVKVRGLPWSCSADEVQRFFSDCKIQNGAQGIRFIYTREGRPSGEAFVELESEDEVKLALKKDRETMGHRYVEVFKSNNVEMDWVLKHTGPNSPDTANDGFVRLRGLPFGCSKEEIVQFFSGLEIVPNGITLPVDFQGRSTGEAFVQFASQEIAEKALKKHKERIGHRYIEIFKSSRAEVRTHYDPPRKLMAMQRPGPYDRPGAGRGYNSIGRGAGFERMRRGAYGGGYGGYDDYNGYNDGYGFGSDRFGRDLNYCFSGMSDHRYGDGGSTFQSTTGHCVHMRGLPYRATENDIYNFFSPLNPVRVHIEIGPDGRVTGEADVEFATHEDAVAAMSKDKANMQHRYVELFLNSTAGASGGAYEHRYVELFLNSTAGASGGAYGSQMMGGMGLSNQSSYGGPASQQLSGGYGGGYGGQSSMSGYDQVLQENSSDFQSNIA

T2: HNRNPF (UniProt P52597 1-415)
T2 sequence: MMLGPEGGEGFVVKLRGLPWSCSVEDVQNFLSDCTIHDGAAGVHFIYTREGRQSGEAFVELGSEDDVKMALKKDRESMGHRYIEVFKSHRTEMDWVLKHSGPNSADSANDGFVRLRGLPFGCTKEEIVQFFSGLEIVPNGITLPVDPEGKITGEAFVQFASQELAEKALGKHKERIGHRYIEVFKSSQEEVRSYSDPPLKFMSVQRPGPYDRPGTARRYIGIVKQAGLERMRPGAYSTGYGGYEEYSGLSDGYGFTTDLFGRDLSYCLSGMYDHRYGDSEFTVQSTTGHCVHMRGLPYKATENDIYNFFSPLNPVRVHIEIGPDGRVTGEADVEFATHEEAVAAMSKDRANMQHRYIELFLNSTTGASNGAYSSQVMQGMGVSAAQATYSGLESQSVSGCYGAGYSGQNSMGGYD

T3: HNRNPH1 qRRM1-2 (UniProt P31943 11-188)
T3 sequence: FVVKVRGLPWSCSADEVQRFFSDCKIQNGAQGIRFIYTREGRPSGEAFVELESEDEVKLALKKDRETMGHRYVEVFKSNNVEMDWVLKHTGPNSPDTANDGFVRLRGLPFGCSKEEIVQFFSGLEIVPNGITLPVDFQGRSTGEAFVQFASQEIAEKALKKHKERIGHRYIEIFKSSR


Key:
HNRNPH1 full-length = target: T1, HNRNPH1 full-length; test: BLI; 150 mM KCl (G4); BLI: 10 mM Tris-HCl pH 7.4, 150 mM KCl, 0.005% P-20, 1 mM EDTA; EMSA: 10 mM Tris-HCl pH 7.4, 1 mM EDTA, 150 mM KCl, room temp, 3 nM RNA; FRET: same Tris/EDTA with 25 mM KCl, room temp; conditions: protein: recombinant, tags: FLAG, label: 5'-biotin
HNRNPF = target: T2, HNRNPF; test: BLI; 150 mM KCl; BLI: 10 mM Tris-HCl pH 7.4, 150 mM KCl, 0.005% P-20, 1 mM EDTA; EMSA: 10 mM Tris-HCl pH 7.4, 1 mM EDTA, 150 mM KCl, room temp, 3 nM RNA; FRET: same Tris/EDTA with 25 mM KCl, room temp; conditions: protein: recombinant; label: 5'-biotin; parallel two-tier G4, intramolecular
HNRNPH1 qRRM1-2 = target: T3, HNRNPH1 qRRM1-2; test: as above; conditions: protein: recombinant; label: 5'-biotin; parallel two-tier G4, intramolecular
[1] = parallel two-tier G4, intramolecular

Row | Binder | Kd (HNRNPH1 full-length; parallel two-tier G4) [nM] | Kd (HNRNPF) [nM] | Kd (HNRNPH1 qRRM1-2) [nM] | Kd (HNRNPH1 full-length; [1]) [nM]
1 | GGUGGGCGGGGAGGAGGACGCGGUGGAAU (structured_RNA) [rG2] | 3.1 ± 0.7 |  |  | 
2 | ACCGGGGCAGGGGAAGAGGGGGAUU (structured_RNA) [rG1] |  | 0.34 | 6 ± 0.8 | 1.08 ± 0.53
3 | GGGCGGGGAGGAGGACGCGGUGGAAUGGG (structured_RNA) [rG3] |  | 0.35 | 4 ± 0.7 | 1.39 ± 0.54
